This is an account of results in article PMC4350284.

The target of assay [1] is STAT5A (UniProt P42230). The assay can be described thus: biotin-peptide precipitation from lysate, GFP blot. The following applies: reference: non-phosphorylated Src peptide; sites Y416.
Assay [2] has as its target STAT5A-eYFP (murine) (UniProt P42230).

With “Src-peptide (activation loop of cSrc (vSrc), Yes and Fyn) (from UniProt P00523) pY416 Src peptide”, the “binding against the reference” value in assay [1] is “gained”.

“vSrc^Y416F-dsRed (from UniProt P00524 1-526) (enzyme)”: in assay [2], the subcellular distribution of STAT5A-eYFP in HeLa T-REx FRT cells expressing vSrc^Y416F-dsRed, nucleus/cytoplasm (n/c) ratio stood at 1.
